Residue numbers refer to the chain shown, from its start.
What was measured:
[1] = target: T1, POM2 epitope-mimicking peptide of the competition BIAcore experiment (Mus musculus); assay: SPR; […] (100–[…]), 1 h at room temperature; […]; HBS-EP; conditions: both partners purified
T1 chain: QPHGGGW

[2] = target: T2, N-terminally truncated recombinant mouse PrP, residues 121–231 (rmPrP_(121-231)) (Mus musculus, UniProt P04925); assay: ELISA
[3] = target: T2, N-terminally truncated recombinant …; assay: SPR; […]; antibody 420 pM–110 nM in HBS-EP at 20 µl/min, 20 min dissociation, […]; conditions: both partners purified

T2 sequence (P04925 whole entry, looked up, the tested form may be a part): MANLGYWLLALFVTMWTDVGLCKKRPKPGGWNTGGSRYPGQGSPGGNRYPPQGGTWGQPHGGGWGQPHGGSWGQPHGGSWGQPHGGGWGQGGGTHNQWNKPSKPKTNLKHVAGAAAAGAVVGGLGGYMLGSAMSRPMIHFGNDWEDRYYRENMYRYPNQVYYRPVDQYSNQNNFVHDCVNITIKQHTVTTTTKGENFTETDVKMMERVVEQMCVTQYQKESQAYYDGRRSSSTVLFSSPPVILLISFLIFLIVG

B1: POM2 scFv, purified and refolded (scFv, V domains shown)
VH: EVKLQESGGEVVRPGTSVKVSCKASGYAFTNYLIEWVKQRPGQGLEWIGVINPGSGDTNYNEKFKGKATLTADKSSSTAYMQLNSLTSDDSAVYFCARSGVAAPYYYAMDYWGQGTSVTVSS
VL: DIVMTQSHKFMSTSVGDRVSITCKASQDVGTALAWYQQKPGQSPKLLIYWASTRHTGVPDRFTGSGSGTDFTLTISNVQSEDLSDYFCQQYSSYPTFGGGTKLEIK
**Q.** Which Kd [1] does the source give for B1 here?
**A.** The Kd was 20 nM.

B2: POM11 monoclonal antibody (antibody, V domains shown)
VH: DVMLVESGPELEKPGASVRISCKASGYSFTGYNMDWVKQNNGKSLEWIGSIDPYYGGTSYNQSFKDKATLTVDKSSGTAYMQLKSLTSDDSAVYYCARGGVGPYYYALDYWGQGTSVTVSS
VL: B1 VL with M4L, T31S, L33V, A51S, S84A, Q89H, S92N, Y94S, G99R, I105L
**Q.** Does B2 bind [2]?
**A.** Result: no binding

B3: POM19 monoclonal antibody (antibody, V domains shown)
VH: EVKLMESGAELMKPGGSVKISCKATGYTFYSYWIEWIKRRPGHGLEWIGEILPGTGDTKYSEKFKGRATFTADPSSNTAYMQLSSLTSEDSAVYYCTRLIYYRYDDYALDYWGQGTSVTVSS
VL: DIVMTQSPAVMSASPGEKVTMTCSASSSISYMHWYQQKPGTSPKRWIFDTSKLASGVPARFSGSGSGTSYSPTISSMEAEDAATYFCHQRIIYPTFGGGTKLEMK
**Q.** How did the Kd [3] turn out when B3 was run?
**A.** The Kd was 0.87 nM.

Reference: article PMC2592702 (PLoS ONE, 2008)
